One experiment deals with T1, APC/C^apo (Saccharomyces cerevisiae, UniProt P38042+P53068).
T1 construct: APC/C was purified from yeast cells; made in house; host or cells: S. cerevisiae W303 strain NHY13 (Cdc16-TAP, Apc1-GFP, cdh1 deleted)
The experiment in a line: SMOR assay, yeast APC/C^apo (no activator). Particulars: Supplementary Table 1, single movie. Type of experiment: binding. Here is the method: Yeast strains were derivatives of W303 and are listed in Supplementary Table 2. For APC/C purification, we used a strain carrying Cdc16-TAP and lacking Cdh1 (DOM1126); in most experiments, the strain also carried Apc1-GFP (NHY13). Yeast were grown in YPD media to OD600 = 0.8, collected and flash-frozen. Cells were lysed by bead beating in lysis buffer A (50 mM HEPES pH 7.5, 150 mM KCl, 10% glycerol, 0.2% Triton X-100, 63 µM B-glycerophosphate, 48 µM sodium fluoride, 1 µg ml^−1 pepstatin A, 1 µg ml^−1 leupeptin, 1 µg ml^−1 aprotinin, 1 mM PMSF, 1 mM DTT, 0.5 mM EDTA) and APC/C was purified using magnetic IgG beads. The beads were washed using wash buffer A (20 mM HEPES pH 7.5, 150 mM KCl, 10% Glycerol, 0.05% Triton X-100). After incubation with purified Cdh1 or Cdc20, the APC/C was cleaved off the beads with TEV protease in wash buffer A with 0.05% Tween-20 (for single-molecule studies) or 0.05% Triton X-100 (for ensemble assays such as ubiquitylation) and used immediately. […]
Microscopy was performed with a Nikon Eclipse TE2000-E with Perfect Focus with a 100 × 1.49na oil, Apo TIRF DIC N2, 0.13-0.2, WD0.12 objective. Movies were recorded using the Andor iXon DU-897E-CSO. […]

The test system of a further experiment is APC/C. Particulars: APC/C^Cdc20 vs APC/C^Cdh1; cited from earlier work. The source says: We find that the yeast securin ...
Another experiment has as its target T2, APC/C^Cdh1 (Saccharomyces cerevisiae, UniProt P53068+P53197).
T2 construct: APC/C was purified from yeast cells; made in house; host or cells: APC/C from S. cerevisiae W303 strain NHY13 (Cdc16-TAP, Apc1-GFP, cdh1 deleted); Cdh1 from Sf9 (baculovirus)
T2 sequence (P53068 whole entry, looked up): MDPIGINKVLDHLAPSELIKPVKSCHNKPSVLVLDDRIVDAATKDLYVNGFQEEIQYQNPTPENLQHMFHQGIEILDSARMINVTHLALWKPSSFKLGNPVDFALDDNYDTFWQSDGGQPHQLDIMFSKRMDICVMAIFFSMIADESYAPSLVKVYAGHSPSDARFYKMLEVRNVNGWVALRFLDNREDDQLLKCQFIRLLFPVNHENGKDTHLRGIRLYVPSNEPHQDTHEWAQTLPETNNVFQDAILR
T2 sequence (P53197 whole entry, looked up): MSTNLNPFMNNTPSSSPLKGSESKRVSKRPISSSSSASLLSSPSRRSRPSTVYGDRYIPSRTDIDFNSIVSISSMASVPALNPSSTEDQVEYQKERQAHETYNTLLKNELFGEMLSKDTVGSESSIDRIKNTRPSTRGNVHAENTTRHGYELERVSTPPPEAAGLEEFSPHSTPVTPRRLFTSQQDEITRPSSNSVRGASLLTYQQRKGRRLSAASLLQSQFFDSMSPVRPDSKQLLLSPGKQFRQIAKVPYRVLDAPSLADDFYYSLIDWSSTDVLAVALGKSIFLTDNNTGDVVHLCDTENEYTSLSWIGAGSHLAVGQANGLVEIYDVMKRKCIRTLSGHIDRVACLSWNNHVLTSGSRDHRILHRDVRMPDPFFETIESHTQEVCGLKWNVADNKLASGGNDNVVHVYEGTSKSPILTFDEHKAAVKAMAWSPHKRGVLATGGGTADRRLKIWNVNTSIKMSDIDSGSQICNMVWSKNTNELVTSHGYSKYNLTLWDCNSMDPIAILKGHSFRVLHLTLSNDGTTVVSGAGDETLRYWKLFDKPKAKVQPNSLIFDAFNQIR
The class given is binding. The conditions noted are these: for mean dwell time: representative of two independent experiments, ± SE, ligand ≤1 nM, buffer C + BSA. Here is the method: Yeast strains were derivatives of W303 and are listed in Supplementary Table 2. For APC/C purification, we used a strain carrying Cdc16-TAP and lacking Cdh1 (DOM1126); in most experiments, the strain also carried Apc1-GFP (NHY13). Yeast were grown in YPD media to OD600 = 0.8, collected and flash-frozen. Cells were lysed by bead beating in lysis buffer A (50 mM HEPES pH 7.5, 150 mM KCl, 10% glycerol, 0.2% Triton X-100, 63 µM B-glycerophosphate, 48 µM sodium fluoride, 1 µg ml^−1 pepstatin A, 1 µg ml^−1 leupeptin, 1 µg ml^−1 aprotinin, 1 mM PMSF, 1 mM DTT, 0.5 mM EDTA) and APC/C was purified using magnetic IgG beads. The beads were washed using wash buffer A (20 mM HEPES pH 7.5, 150 mM KCl, 10% Glycerol, 0.05% Triton X-100). After incubation with purified Cdh1 or Cdc20, the APC/C was cleaved off the beads with TEV protease in wash buffer A with 0.05% Tween-20 (for single-molecule studies) or 0.05% Triton X-100 (for ensemble assays such as ubiquitylation) and used immediately.
For all SMOR experiments, 24 × 50 mm high precision glass coverslips (Bioscience Tools) and drilled microscope slides were passivated with a combination of PEG and PEG-biotin (coverslips) or PEG only (slides) following a previously published protocol for SiMPull[31]. Reaction chambers (~20 µl) were created using double-sided tape and epoxy. Protein was immobilized on the surface with 0.2 mg ml^−1 NeutrAvidin in buffer C (20 mM HEPES pH 7.5, 150 mM KCl, 10% glycerol, 0.05% Tween-20, 1 mM DTT). Excess NeutrAvidin was washed away and incubated with either biotin-conjugated mouse monoclonal anti-Strep-Tag II antibody (LSBio, Cat. No. LS-C203632-100) or biotin-conjugated rabbit polyclonal anti-GFP antibody (Rockland, Cat. No. 600-406-215) diluted in buffer C + BSA (0.1 mg ml^−1; Molecular Biology Grade Bovine Serum Albumin). Activator WD40 and activated APC/C (typically 50 µl containing about 65 ng APC/C, of which only a small fraction is immobilized on the glass) were immobilized using anti-Strep-Tag II, while APC/C alone was immobilized with anti-GFP. SMOR results were similar when performed in the buffer (wash buffer B) used in polarization anisotropy.
To capture dynamic protein–protein interactions, dye-labeled substrate diluted in buffer C + BSA was added to the chamber containing immobilized proteins. Interactions were imaged by TIRF microscopy as described below. For optimal signal-to-noise ratio, peptide concentration was no greater than 1 nM. Protein substrates included Hsl1 aa 667–872 and a C-terminal HaloTag followed by a TAP tag, and were produced by translation in rabbit reticulocyte lysates using TnT Quick Coupled Transcription/Translation System (Promega) (see Supplementary Table 5 for plasmids). Protein was purified with magnetic IgG beads and labeled on the bead with JF549 or JF646 dye so that unbound dye could be washed away. Purified dye-labeled protein was then cleaved from the beads using TEV protease. Before adding substrate to the reaction chamber, oxygen scavenging reagents were added (10 nM protocatechuate-3,4-dioxygenase, 2.5 mM protocatechuic acid, and 1 mM Trolox)[41]. A detailed description of the SMOR analysis pipeline is found in Supplementary Note 1.
Microscopy was performed with a Nikon Eclipse TE2000-E with Perfect Focus with a 100 × 1.49na oil, Apo TIRF DIC N2, 0.13-0.2, WD0.12 objective. Movies were recorded using the Andor iXon DU-897E-CSO. For visualizing GFP-tagged protein, a 491 nm laser was used with an ET525/50 (Chroma) filter for emission. For visualizing JF549-labeled substrate, a 561 nm laser was used with an ET595/50 (Chroma) filter for emission. For visualizing all Cy5-labeled peptides and JF646-labeled substrates, a 640 nm laser was used with an ET685/70 filter (Chroma) for emission. Initially, for each substrate tested, we acquired movies at multiple intervals to deduce the optimal interval to decrease bleaching. µManager version 2.0 was used to control the microscope and record time-lapse movies.

Where “and” joins values, the source holds several entries; their conditions need not be identical. Equal values may be shown once. Read-outs that look alike come from different tables or passages of the source.

B1: Hsl1^Halo KEN & D: Hsl1 fragment (amino acids 667–872) with C-terminal HaloTag, JF549-labeled (protein)
chain: QNSASKRSLYSLQSISKRSLNLNDLLVFDDPLPSKKPASENVNKSEPHSLESDSDFEILCDQILFGNALDRILEEEEDNEKERDTQRQRQNDTKSSADTFTISGVSTNKENEGPEYPTKIEKNQFNMSYKPSENMSGLSSFPIFEKENTLSSSYLEEQKPKRAALSDITNSFNKMNKQEGMRIEKKIQREQLQKKNDRPSPLKPIQ
modifications: JF549 or JF646 dye covalently bound to the HaloTag; left off: HaloTag, C-terminal, kept | TAP, C-terminal, cleaved
notes: Hsl1 fragment (amino acids 667–872) with C-terminal HaloTag, JF549-labeled
As for B1, in the experiment with APC/C^apo, the “Dwell Time (in words)” value is reported as “no binding”. Also, the “processivity of ubiquitylation (in words)” value with APC/C was “more processively modified by APC/C^Cdh1”. In addition, the Dwell Time came out at 300 s in the experiment with APC/C^Cdh1; 321.161 ± 14.186 s with APC/C^Cdh1 (Supplementary Table 1, replicate 1 (movie listed first)); 268.262 ± 10.979 s in the experiment with APC/C^Cdh1 (Supplementary Table 1, replicate 2 (movie listed second)). In addition, the “fold increase in affinity/dwell time, APC/C^Cdh1 vs Cdh1 alone” value with APC/C^Cdh1 is on record as 6 fold. Besides, the mean dwell time with APC/C^Cdh1 is 321 ± 14 s and 321 s; with APC/C^Cdh1 (listed as Hsl1), “over 300 s”; in the experiment with APC/C^Cdh1 (listed as Hsl1 fragment), 321 ± 14 s.
